# Laboratory results as given in the Immune Epitope Database (IEDB).
# Key:
# HLA-A*02:01 [1] = experiment: IEDB peptide-MHC binding, purified MHC/competitive/fluorescence; filed as Kd, often an IC50 or EC50 that approximates it; ≥ and ≤ were set here for values at or beyond the usual limits of such assays; details: source organism: Toxoplasma gondii GT1
# HLA-A*02:06 = experiment: as above; details: source organism: Toxoplasma gondii GT1
# HLA-A*11:01 = experiment: IEDB peptide-MHC binding, purified MHC/direct/fluorescence; filed as Kd, often an IC50 or EC50 that approximates it; ≥ and ≤ were set here for values at or beyond the usual limits of such assays
# HLA-A*31:01 = experiment: IEDB peptide-MHC binding, purified MHC/competitive/fluorescence; filed as Kd, often an IC50 or EC50 that approximates it; ≥ and ≤ were set here for values at or beyond the usual limits of such assays; details: source organism: dengue virus type 1
# HLA-A*32:07 = experiment: as above
# HLA-B*15:42 = experiment: as above
# HLA-B*45:06 = experiment: as above
# HLA-B*83:01 = experiment: as above
# HLA-A*30:01 = experiment: IEDB peptide-MHC binding, purified MHC/competitive/radioactivity; filed as Kd, often an IC50 or EC50 that approximates it; ≥ and ≤ were set here for values at or beyond the usual limits of such assays; details: source organism: Dengue virus 1 Brazil/97-11/1997
# HLA-A*32:01 = experiment: as above; details: source organism: Dengue virus 1 Brazil/97-11/1997
# HLA-A*68:02 = experiment: IEDB peptide-MHC binding, purified MHC/competitive/fluorescence; filed as Kd, often an IC50 or EC50 that approximates it; ≥ and ≤ were set here for values at or beyond the usual limits of such assays; details: source organism: Francisella tularensis subsp. tularensis FSC198
# HLA-C*04:01 = experiment: as above; details: source organism: Francisella tularensis subsp. tularensis FSC198
# HLA-A*01:01 [2] = experiment: IEDB peptide-MHC binding, purified MHC/competitive/fluorescence; ≥ and ≤ were set here for values at or beyond the usual limits of such assays; details: source organism: Zaire ebolavirus
# HLA-A*02:01 [3] = experiment: as above; details: source organism: Zaire ebolavirus
# HLA-A*24:02 [4] = experiment: as above; details: source organism: Zaire ebolavirus
# HLA-B*15:01 [5] = experiment: as above; details: source organism: Zaire ebolavirus
# HLA-A*01:01 [6] = experiment: IEDB peptide-MHC binding, purified MHC/direct/fluorescence; filed as Kd, often an IC50 or EC50 that approximates it; ≥ and ≤ were set here for values at or beyond the usual limits of such assays; details: source organism: Influenza A virus (A/Duck/Shantou/2134/00(H9N2))
# HLA-A*02:01 [7] = experiment: as above; details: source organism: Influenza A virus (A/Duck/Shantou/2134/00(H9N2))
# HLA-A*03:01 = experiment: as above; details: source organism: Influenza A virus (A/Duck/Shantou/2134/00(H9N2))
# HLA-A*24:02 [8] = experiment: as above; details: source organism: Influenza A virus (A/Duck/Shantou/2134/00(H9N2))
# HLA-A*26:01 = experiment: as above; details: source organism: Influenza A virus (A/Taiwan/2/2006(H1N1))
# HLA-A*69:01 = experiment: as above; details: source organism: Influenza A virus (A/Duck/Shantou/2134/00(H9N2))
# HLA-B*07:02 = experiment: as above; details: source organism: Influenza A virus (A/Duck/Shantou/2134/00(H9N2))
# HLA-B*08:01 = experiment: as above; details: source organism: Influenza A virus (A/Duck/Shantou/2134/00(H9N2))
# HLA-B*08:02 = experiment: as above; details: source organism: Influenza A virus (A/Taiwan/2/2006(H1N1))
# HLA-B*15:01 [9] = experiment: as above; details: source organism: Influenza A virus (A/Puerto Rico/8/34/Mount Sinai(H1N1))
# HLA-B*27:05 = experiment: as above; details: source organism: Influenza A virus (A/Duck/Shantou/2134/00(H9N2))
# HLA-B*40:01 = experiment: as above; details: source organism: Influenza A virus (A/Duck/Shantou/2134/00(H9N2))
# HLA-B*44:02 = experiment: as above; details: source organism: Influenza A virus (A/Duck/Shantou/2134/00(H9N2))
# HLA-B*58:01 = experiment: as above; details: source organism: Influenza A virus (A/Duck/Shantou/2134/00(H9N2))
# [10] = source organism: dengue virus type 1
# [11] = source organism: Francisella tularensis subsp. tularensis FSC198
sequence,measurement,setting,value
VLGSWPVDL,Kd,HLA-A*02:01 [1],0.209 µM
same,Kd,HLA-A*02:06,2.46 µM
ATYGWNLVK,Kd,HLA-A*11:01; source organism: Dengue virus 1 Singapore/S275/1990,≤ 0.001 µM
same,Kd,HLA-A*31:01,0.00148 µM
same,Kd,HLA-A*32:07; [10],0.0774 µM
same,Kd,HLA-B*15:42; [10],≥ 5 µM
same,Kd,HLA-B*45:06; [10],≥ 5 µM
same,Kd,HLA-B*83:01; [10],≥ 5 µM
same,Kd,HLA-A*30:01,0.212 µM
same,Kd,HLA-A*32:01,0.755 µM
MGAGLVFPI,Kd,HLA-A*32:07; [11],0.0448 µM
same,Kd,HLA-A*68:02,≤ 0.0001 µM
same,Kd,HLA-B*15:42; [11],≥ 5 µM
same,Kd,HLA-B*45:06; [11],≥ 5 µM
same,Kd,HLA-B*83:01; [11],≥ 5 µM
same,Kd,HLA-C*04:01,≥ 5 µM
YLEGHGFRF,IC50,HLA-A*01:01 [2],≥ 76.3 µM
same,IC50,HLA-A*02:01 [3],0.403 µM
same,IC50,HLA-A*24:02 [4],0.18 µM
same,IC50,HLA-B*15:01 [5],17.6 µM
ASRGLWDSF,Kd,HLA-A*01:01 [6],≥ 20 µM
same,Kd,HLA-A*02:01 [7],≥ 20 µM
same,Kd,HLA-A*03:01,≥ 20 µM
same,Kd,HLA-A*11:01; source organism: Influenza A virus (A/Duck/Shantou/2134/00(H9N2)),≥ 20 µM
same,Kd,HLA-A*24:02 [8],≥ 20 µM
same,Kd,HLA-A*26:01,≥ 20 µM
same,Kd,HLA-A*69:01,≥ 20 µM
same,Kd,HLA-B*07:02,≥ 20 µM
same,Kd,HLA-B*08:01,≥ 20 µM
same,Kd,HLA-B*08:02,≥ 20 µM
same,Kd,HLA-B*15:01 [9],0.891 µM
same,Kd,HLA-B*27:05,≥ 20 µM
same,Kd,HLA-B*40:01,≥ 20 µM
same,Kd,HLA-B*44:02,≥ 20 µM
same,Kd,HLA-B*58:01,≥ 5 µM
